In patent publication US6090381:

Key:
[1] = molecular target: target antigen of the LL2 antibody (not given); experiment: ELISA, calculated from ID50 values; coated reagent not named
[2] = molecular target: target antigen of the LL2 antibody (not given); experiment: cell surface binding assay, calculated from the ID50 values; cells not named
[3] = molecular target: target antigen of the LL2 antibody (not given); experiment: competitive binding assay, F(ab')2; from the ID50 against unmodified control F(ab')2
[4] = molecular target: target antigen of the LL2 antibody (not given); experiment: competitive binding assay, F(ab')2; competitor and antigen not named; design: unit not given beside the values

Substance	Immunoreactivity (%), ELISA [1] [%]	Immunoreactivity (%), Cell Binding [2] [%]	Immunoreactivity, % of hLL2 [3] [%]	ID50 [4]
dextran-doxorubicin-conjugated F(ab')2 fragment of hLL2 (antibody)	42.2	41.9		
F(ab')2 fragment of hLL2 (antibody)	100	100	100	0.384
